IntAct's records for PubMed 29039417

B1: BBSome complex member BBS2 (Homo sapiens), Q9BXC9 (parent)
chain: MLLPVFTLKLRHKISPRMVAIGRYDGTHPCLAAATQTGKVFIHNPHTRNQHVSASRVFQSPLESDVSLLSINQAVSCLTAGVLNPELGYDALLVGTQTNLLAYDVYNNSDLFYREVADGANAIVLGTLGDISSPLAIIGGNCALQGFNHEGSDLFWTVTGDNVNSLALCDFDGDGKKELLVGSEDFDIRVFKEDEIVAEMTETEIVTSLCPMYGSRFGYALSNGTVGVYDKTSRYWRIKSKNHAMSIHAFDLNSDGVNELITGWSNGKVDARSDRTGEVIFKDNFSSAIAGVVEGDYRMDGHIQLICCSVDGEIRGYLPGTAEMRGNLMDTSAEQDLIRELSQKKQNLLLELRNYEENAKAELASPLNEADGHRGIIPANTRLHTTLSVSLGNETQTAHTELRISTSNDTIIRAVLIFAEGIFTGESHVVHPSIHNLSSSICIPIVPPKDVPVDLHLKAFVGYRSSTQFHVFESTRQLPRFSMYALTSLDPASEPISYVNFTIAERAQRVVVWLGQNFLLPEDTHIQNAPFQVCFTSLRNGGHLHIKIKLSGEITINTDDIDLAGDIIQSMASFFAIEDLQVEADFPVYFEELRKVLVKVDEYHSVHQKLSADMADHSNLIRSLLVGAEDARLMRDMKTMKSRYMELYDLNRDLLNGYKIRCNNHTELLGNLKAVNQAIQRAGRLRVGKPKNQVITACRDAIRSNNINTLFKIMRVGTASS
partner: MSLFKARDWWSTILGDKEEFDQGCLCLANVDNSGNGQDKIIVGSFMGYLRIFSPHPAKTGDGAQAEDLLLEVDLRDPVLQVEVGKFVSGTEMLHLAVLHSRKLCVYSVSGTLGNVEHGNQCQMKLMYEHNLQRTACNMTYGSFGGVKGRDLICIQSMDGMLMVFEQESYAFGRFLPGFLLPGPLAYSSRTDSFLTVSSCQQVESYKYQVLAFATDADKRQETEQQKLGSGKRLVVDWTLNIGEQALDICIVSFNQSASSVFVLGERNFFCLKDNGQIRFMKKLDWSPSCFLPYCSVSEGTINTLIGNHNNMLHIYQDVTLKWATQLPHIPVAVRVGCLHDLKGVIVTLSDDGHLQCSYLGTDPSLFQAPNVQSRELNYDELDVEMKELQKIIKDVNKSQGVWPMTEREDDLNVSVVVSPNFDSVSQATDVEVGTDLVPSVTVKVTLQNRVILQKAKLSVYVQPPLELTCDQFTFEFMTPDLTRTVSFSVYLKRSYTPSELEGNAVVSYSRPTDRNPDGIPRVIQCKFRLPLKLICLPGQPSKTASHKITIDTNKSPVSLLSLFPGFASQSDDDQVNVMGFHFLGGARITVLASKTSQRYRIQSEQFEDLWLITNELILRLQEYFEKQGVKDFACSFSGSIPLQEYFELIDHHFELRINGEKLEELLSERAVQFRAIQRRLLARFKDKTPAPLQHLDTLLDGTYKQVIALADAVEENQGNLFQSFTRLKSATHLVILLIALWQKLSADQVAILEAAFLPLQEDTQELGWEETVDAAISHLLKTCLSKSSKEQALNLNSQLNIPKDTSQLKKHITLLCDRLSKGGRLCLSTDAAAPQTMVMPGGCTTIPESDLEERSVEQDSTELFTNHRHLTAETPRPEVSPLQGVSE

Variants of: B1
Settings: with pthb1_human BBS9, Q3SYG4

effect of a mutation on the interaction	Variant
with no effect	T475A
with no effect	T475K
with no effect	T475E
with no effect	V499A
with no effect	V499K
with no effect	V499E
with no effect	D490E
with no effect	D490K
with no effect	D490A
with no effect	S488K
with no effect	S488A
with no effect	S488E
disrupting interaction strength	S488R
with no effect	S465A
with no effect	S465K
with no effect	S465E
disrupting interaction strength	V461M
disrupting interaction strength	V461A
disrupting interaction strength	V461K
disrupting interaction strength	V461E
with no effect	E494A
with no effect	E494K
with no effect	F472K
with no effect	F472E

effect of a mutation on the interaction	Variant
with no effect	F472A
with no effect	E473A
with no effect	E473K
with no effect	P495E
with no effect	P495A
with no effect	P495K
with no effect	R509E
with no effect	R509A
with no effect	R509K
disrupting interaction strength	F481E
disrupting interaction strength	F481A
disrupting interaction strength	F481K
with no effect	E505K
with no effect	E505A
with no effect	P479K
disrupting interaction strength	P479E
disrupting interaction strength	P479L
with no effect	P479A
with no effect	H470K
with no effect	H470E
with no effect	H470A
with no effect	S482A
disrupting interaction strength	S482P
disrupting interaction strength	S482K

effect of a mutation on the interaction	Variant
disrupting interaction strength	S482E
disrupting interaction strength	F501E
with no effect	F501A
with no effect	F501K
with no effect	Y498A
with no effect	Y498K
disrupting interaction strength	Y498H
with no effect	Y498E
with no effect	K458E
with no effect	K458A
with no effect	A507K
with no effect	A507E
with no effect	R476K
with no effect	R476A
with no effect	R476E
with no effect	L486A
with no effect	L486E
with no effect	L486K
with no effect	A492K
with no effect	A492E
with no effect	Y463E
with no effect	Y463A
with no effect	Y463K
disrupting interaction strength	F469E

effect of a mutation on the interaction	Variant
disrupting interaction strength	F469L
with no effect	F469A
disrupting interaction strength	F469K
with no effect	T487A
with no effect	T487K
with no effect	T487E
disrupting interaction strength	T487M
with no effect	S493A
with no effect	S493K
with no effect	S493E
with no effect	T502K
with no effect	T502A
with no effect	T502E
with no effect	R480K
with no effect	R480E
with no effect	R480A
with no effect	N500K
with no effect	N500A
with no effect	N500E
with no effect	F460K
disrupting interaction strength	F460A
disrupting interaction strength	F460E
with no effect	T467K
with no effect	T467A

effect of a mutation on the interaction	Variant
with no effect	T467E
disrupting interaction strength	G462D
disrupting interaction strength	G462S
with no effect	G462K
with no effect	G462E
with no effect	G462A
with no effect	I503E
with no effect	I503K
with no effect	I503A
with no effect	Q468K
with no effect	Q468E
with no effect	Q468A
with no effect	A504K
with no effect	A504E
with no effect	L489A
with no effect	L489K
with no effect	L489E
with no effect	Q508E
disrupting interaction strength	Q508A
with no effect	Q508K
with no effect	P491E
with no effect	P491A
with no effect	P491K
disrupting interaction strength	A459E

effect of a mutation on the interaction	Variant
disrupting interaction strength	A459K
disrupting interaction strength	A459T
with no effect	A485K
disrupting interaction strength	A485S
with no effect	A485E
with no effect	S497E
disrupting interaction strength	S497A
with no effect	S497K
with no effect	M483A
disrupting interaction strength	M483E
disrupting interaction strength	M483K
disrupting interaction strength	M483I
with no effect	S474E
disrupting interaction strength	S474A
disrupting interaction strength	S474K
with no effect	I496E
with no effect	I496A
with no effect	I496K
with no effect	R506K
with no effect	R506E
with no effect	R506A
with no effect	V511A
with no effect	V511E
with no effect	V471K

effect of a mutation on the interaction	Variant
disrupting interaction strength	V471A
with no effect	V471E
with no effect	V510E
with no effect	V510K
with no effect	V510A
with no effect	R464E
with no effect	R464A
with no effect	R464K
disrupting interaction strength	L478A
disrupting interaction strength	L478K
disrupting interaction strength	L478E
disrupting interaction strength	L478P
disrupting interaction strength	Y484K
disrupting interaction strength	Y484A
disrupting interaction strength	Y484E
disrupting interaction strength	S466E
with no effect	S466A
with no effect	S466K
with no effect	Q477A
with no effect	Q477K
with no effect	Q477E
